{
  "source": "patent CN101415728A",
  "about": "(dated 2009)",
  "binders": {"B1": {"name": "M14-G11.G4.P (antibody, human IgG4, V domains shown, not shown: a dimerising Fc or GST)", "VH": "EVQLLESGGGLVQPGGSLRLSCAASGFTFSNYPMYWVRQAPGKGLEWVSRISSSGGRTVYADSVKGRFTISRDNSKNTLYLQMNSLRAEDTAVYYCARDRWSRSAAEYGLGGYWGQGTLVTVSS", "VL": "not shown"}, "B2": {"name": "M14-B01 Fab (Fab, V domains shown)", "VH": "EVQLLESGGGLVQPGGSLRLSCAASGFTFSNYHMAWVRQAPGKGLEWVSVISPTGGRTTYADSVKGRFTISRDNSKNTLYLQMNSLRAEDTATYYCARAGYSYGYGYFDYWGQGTLVTVSS", "VL": "DIQMTQFPATLSVSPGERATLSCRASQSVMRNLAWYQQKPGQPPRLLIYGASKRATGIPARFSGSGSGTAFTLTISNLEPEDFAVYYCHQRSTWPLGTFGPGTKLEAK", "notes": "Human Fab from a phage library (VH3-23, kappa)"}, "B3": {"name": "M13-C06 Fab (Fab, V domains shown)", "VH": "EVQLLESGGGLVQPGGSLRLSCAASGFTFSIYRMQWVRQAPGKGLEWVSGISPSGGTTWYADSVKGRFTISRDNSKNTLYLQMNSLRAEDTAVYYCARWSGGSGYAFDIWGQGTMVTVSS", "VL": "DIQMTQSPLSLSASVGDRVTITCQASRDIRNYLNWYQQKPGKAPKLLIYDASSLQTGVPSRFGGSGSGTDFSFTIGSLQPEDIATYYCQQFDSLPHTFGQGTKLEIK", "notes": "Human Fab from a phage library (VH3-23 germline framework, kappa light chain)"}, "B4": {"name": "M13-C06 antibody (full-length, IgG4 version not stated) (antibody, V domains shown)", "VH": "B3 VH", "VL": "B3 VL", "notes": "Fully human full-length antibody; In tr-FRET it carried a europium chelate (10.3:1 Eu:C06); also called M13-C06_Ab; Eu-C06"}, "B5": {"name": "M12-E01 Fab (Fab, V domains shown)", "VH": "EVQLLESGGGLVQPGGSLRLSCAASGFTFSPYSMLWVRQAPGKGLEWVSSIGSSGGSTRYADSVKGRFTISRDNSKNTLYLQMNSLRAEDTAMYYCARVRGILHYDILIGRNLYYYYMDVWGKGTTVTVSS", "VL": "QYELTQPPSVSEAPRQRVTISCSGSSSNIGNNAINWYQQLPGKPPKLLIYYDDLLPSGVSDRFSGSKSGTSGSLAISGLQSEDEADYYCAAWDDNLNGVIFGGGTKLTVL", "notes": "Human Fab from a phage library (VH3-23, lambda light chain)"}, "B6": {"name": "小鼠IGF-1R(1-903)-Fc (Fc fusion)", "chain": "not shown", "notes": "range 1-903; also called mIGF-1R-Fc; mIGF1R; not shown: C-terminal human IgG1-Fc tag"}},
  "key": {"[1]": {"target": "human IGF-1R expressed on cells (human)", "assay": "cell-based or functional assay"}, "[2]": {"target": "T1, 人INSR(28-956)-His 10 (human, UniProt P06213 28-956)", "T1 construct": "range 28-956; Bought from R&D Systems; also called INSR-His 10; rh-INSR (R&D Systems #1544-IR)", "T1 sequence (P06213 other isoform, or with tags, fused parts or gaps limits assumed)": "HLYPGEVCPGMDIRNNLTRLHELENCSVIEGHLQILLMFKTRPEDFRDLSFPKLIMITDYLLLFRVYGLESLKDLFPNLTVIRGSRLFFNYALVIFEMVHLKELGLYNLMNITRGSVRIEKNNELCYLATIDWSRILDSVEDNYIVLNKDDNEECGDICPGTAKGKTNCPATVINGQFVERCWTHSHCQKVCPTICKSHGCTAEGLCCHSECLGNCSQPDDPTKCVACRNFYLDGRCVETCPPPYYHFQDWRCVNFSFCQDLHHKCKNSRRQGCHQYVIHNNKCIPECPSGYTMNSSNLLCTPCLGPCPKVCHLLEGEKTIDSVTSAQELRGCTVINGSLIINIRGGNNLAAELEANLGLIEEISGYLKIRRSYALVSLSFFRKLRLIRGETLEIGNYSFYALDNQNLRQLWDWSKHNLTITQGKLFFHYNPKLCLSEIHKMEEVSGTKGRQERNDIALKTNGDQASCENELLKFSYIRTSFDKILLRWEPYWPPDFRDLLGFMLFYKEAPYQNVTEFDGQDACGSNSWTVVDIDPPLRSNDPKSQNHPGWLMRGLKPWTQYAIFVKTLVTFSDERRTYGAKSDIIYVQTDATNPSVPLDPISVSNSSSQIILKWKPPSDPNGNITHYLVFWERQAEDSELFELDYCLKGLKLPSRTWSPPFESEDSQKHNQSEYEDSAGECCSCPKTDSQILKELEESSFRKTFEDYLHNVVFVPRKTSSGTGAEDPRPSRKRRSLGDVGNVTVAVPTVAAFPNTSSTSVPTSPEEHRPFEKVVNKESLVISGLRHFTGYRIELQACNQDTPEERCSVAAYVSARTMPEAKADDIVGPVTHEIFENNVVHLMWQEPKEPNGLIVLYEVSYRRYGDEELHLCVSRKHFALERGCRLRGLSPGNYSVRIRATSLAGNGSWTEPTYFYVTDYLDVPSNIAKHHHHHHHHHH", "assay": "ELISA on plates coated with rh-INSR"}, "[3]": {"target": "B6", "assay": "SPR, receptor-Fc captured by anti-human IgG-Fc, Fab injected, 1:1 model (also printed as 89.1nM)"}, "[4]": {"target": "B6", "assay": "SPR, receptor-Fc captured by anti-human IgG-Fc, Fab injected, 1:1 model"}, "[5]": {"target": "B6", "assay": "SPR, compared with hIGF-1R-Fc"}, "[6]": {"target": "B6", "assay": "SPR, second run with 3 h dissociation"}, "[7]": {"target": "T1, 人INSR(28-956)-His 10", "assay": "tr-FRET competition (Eu-C06 / Cy5-hIGF-1R-His10)"}, "[8]": {"target": "B4", "assay": "tr-FRET competition against Cy5-IGF1R-His10 for Eu-C06"}},
  "data": [
    {"binder": "B1", "values": [
      {"measurement": "inhibition of IGF-1- and IGF-2-mediated IGF-1R phosphorylation in MCF-7 cells, EC50", "setting": "[1]", "value": "< 1", "unit": "nM"}
    ]},
    {"binder": "B2", "values": [
      {"measurement": "binding result", "setting": "[2]", "value": "no binding (tested: 2μM)"}
    ]},
    {"binder": "B3", "values": [
      {"measurement": "binding result", "setting": "[2]", "value": "no binding (tested: 2μM)"},
      {"measurement": "Kd", "setting": "[3]", "value": 89.1, "unit": "nM"},
      {"measurement": "kon", "setting": "[4]", "value": 471, "unit": "M⁻¹ s⁻¹"},
      {"measurement": "fold decrease of binding against human IGF-1R", "setting": "[5]", "value": 100, "unit": "fold"},
      {"measurement": "koff", "setting": "[6]", "value": "4.2e-05", "unit": "s⁻¹"}
    ]},
    {"binder": "B4", "values": [
      {"measurement": "binding result", "setting": "[7]", "value": "no binding (tested: IC50以上100倍的浓度)"}
    ]},
    {"binder": "B5", "values": [
      {"measurement": "binding result", "setting": "[2]", "value": "no binding (tested: 2μM)"}
    ]},
    {"binder": "B6", "values": [
      {"measurement": "IC50", "setting": "[8]", "value": "> 100", "unit": "µg/mL"}
    ]}
  ]
}
